# Laboratory results published in IntAct's records for PubMed 17576925.
# B1: Long-distance movement protein (Groundnut rosette virus (strain MC1)), Q67684 (parent)
# chain: MDTTPASRGQWPVGIMSSVINVFASGKSCNSGGAPRSSVRRGHRAGAARDKSRGFDAPPRRPKGGVHPATTSKDPNKDIRGPPAPTPHKKYRGPAIPGEGRSGVHTTRPRRRAGRSGGMDPRQLVAQPQQRWAKTEIPTERRAEIDGLLPSLLNTLDGQIQGDAALLRYCVGAIKRELRRRWESVQPAHHVAASSGKPSPQLFNEAAQNAEDLSGDGKGCAGQSVQQEVLHSGSGVPPVCADCGKPAANKW
# partner: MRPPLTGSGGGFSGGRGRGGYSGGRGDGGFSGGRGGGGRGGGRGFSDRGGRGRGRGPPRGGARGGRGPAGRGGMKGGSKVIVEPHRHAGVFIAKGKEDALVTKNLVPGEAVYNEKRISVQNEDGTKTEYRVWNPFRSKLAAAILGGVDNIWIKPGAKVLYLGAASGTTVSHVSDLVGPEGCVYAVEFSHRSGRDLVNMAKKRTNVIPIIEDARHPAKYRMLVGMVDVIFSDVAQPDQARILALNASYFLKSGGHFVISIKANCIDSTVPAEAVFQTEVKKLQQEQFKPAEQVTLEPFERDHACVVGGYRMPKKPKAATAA
# Variants of: B1
# Details: with fbrl2_arath FIB2, Q94AH9
row,Variant,effect of a mutation on the interaction
1,L149A,disrupting interaction strength
